# According to patent US20240092916A1 (Astellas, published 2024):
# T1: ActRIIB-His (LifeSpan Biosciences, LS-G38834) (Homo sapiens (Human), UniProt Q13705 19-137)
# T1 construct: Bought reagent
# T1 sequence: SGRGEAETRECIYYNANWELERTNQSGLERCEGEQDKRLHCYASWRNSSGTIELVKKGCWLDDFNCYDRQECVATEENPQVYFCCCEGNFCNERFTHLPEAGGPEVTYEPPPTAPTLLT
# T2: human Fc fusion protein including the extracellular domain of human Fn14 (human, UniProt Q9NP84 28-80)
# T2 construct: extracellular domain; not shown: human Fc
# T2 sequence (looked up): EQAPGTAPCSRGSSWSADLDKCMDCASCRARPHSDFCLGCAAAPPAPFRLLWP
# B1: humanized 75E9STF8-1 (bispecific antibody, human IgG1, kappa, L234A L235A)
# heavy: EVQLVESGGGLVQPGGSLRLSCAASRSIFAYGTMAWYRQAPGKGRELVATISGGGTTSYSDSVKGRFTISRDNGKSTVYLQMNSLRAEDTAVYYCNKRSIGTNDFWGQGTLVTVSSGGGGSGGGGSGGGGSGGGGSGGGGSEVQLVESGGGLVQPGGSLRLSCAASGFTLTTNALIWGRQAPGAAPGKGPEWVAGIRADGRPYYGDSMKGRVTISRDIAKNTAYLQMNSLRPEDTAVYFCATRLDDSGTYDRGRGTTVTVSSGGGGSGGGGSEVQLVESGGGLVKPGGSLRLSCAASGITFSTYGMNWVRQAPGKGLEWVSSISSRSIHISYADSVKGRFTISRDNAKNSLYLQMSSLRADDTAVYYCARDRGAAAFDYWGRGTLVAVSSASTKGPSVFPLAPSSKSTSGGTAALGCLVKDYFPEPVTVSWNSGALTSGVHTFPAVLQSSGLYSLSSVVTVPSSSLGTQTYICNVNHKPSNTKVDKKVEPKSCDKTHTCPPCPAPEAAGGPSVFLFPPKPKDTLYITREPEVTCVVVDVSHEDPEVKFNWYVDGVEVHNAKTKPREEQYNSTYRVVSVLTVLHQDWLNGKEYKCKVSNKALPAPIEKTISKAKGQPREPQVYTLPPSRDELTKNQVSLTCLVKGFYPSDIAVEWESNGQPENNYKTTPPVLDSDGSFFLYSKLTVDKSRWQQGNVFSCSVMHEALHNHYTQKSLSLSPGK
# light: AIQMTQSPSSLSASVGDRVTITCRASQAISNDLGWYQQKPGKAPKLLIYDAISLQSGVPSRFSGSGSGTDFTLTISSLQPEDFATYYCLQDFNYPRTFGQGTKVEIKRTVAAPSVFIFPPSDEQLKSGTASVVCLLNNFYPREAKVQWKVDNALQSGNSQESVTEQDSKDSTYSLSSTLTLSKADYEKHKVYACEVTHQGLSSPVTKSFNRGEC
# notes: Expressed in CHO-K1SV cells
# Experiments:
# Assay in all cases: ELISA, antigen immobilized at 1 µg/mL, detection with anti-human kappa-HRP
# [1] = molecular target: T1, ActRIIB-His (LifeSpan Biosciences, …)
# Method: (§1) The binding activities of the humanized 75E9STF8-1 obtained in Example 4 to ActRIIA, ActRIIB, and Fn14 were evaluated. ActRIIA-His (LifeSpan Biosciences, LS-G39063), ActRIIB-His (LifeSpan Biosciences, LS-G38834), and the human Fc fusion proteins including the extracellular domain of human Fn14 prepared in Example 3 were each diluted to 1 μg/mL with phosphate-buffered physiological saline (PBS), each added to a Maxisorp 384-well transparent plate (Nunc, 464718) at 15 μL/well, and incubated at 4° C. overnight for immobilization. On the next day, the solid phase liquid was removed and washing was performed with a 0.05% Tween-20-containing Tris-buffered physiological saline (TBS-T). Thereafter, PBS including 20% Blocking One (Nacalai tesque, Inc., 03953-95) was added thereto at 50 μL/well, and the mixture was left to stand at room temperature for 1 hour and then washed with TBS-T. Dilution series of humanized 75E9STF8-1 were prepared by dilution in 12 steps at a 4-fold common ratio from the maximum concentration of 30 μg/mL, and added at 20 μL/well. TBS-T including 5% Blocking One was used as a diluent. After incubation for 1 hour at room temperature, washing was performed with TBS-T. As a detection antibody, Goat Anti-Human Kappa, Mouse ads-HRP (SouthernBiotech, 2061-05) which had been 4,000-fold diluted with a diluent (TBS-T including 5% Blocking One) was added at 20 μL/well. After incubating at room temperature for 1.5 hours, the cells were washed with TBS-T, TMB+Substrate-Chromogen (DAKO, S159985) was added thereto, the mixture was left to stand, 1 M sulfuric acid was added thereto to stop the reaction, and the absorbance at 450 nm was measured with Infinite (registered trademark) 200 Pro (TECAN).
# [2] = molecular target: T3, ActRIIA-His (LifeSpan Biosciences, LS-G39063) (Homo sapiens (Human), UniProt P27037 20-135)
# T3 construct: Bought reagent
# T3 sequence (P27037 20-135 limits assumed, form in doubt, one chain of several): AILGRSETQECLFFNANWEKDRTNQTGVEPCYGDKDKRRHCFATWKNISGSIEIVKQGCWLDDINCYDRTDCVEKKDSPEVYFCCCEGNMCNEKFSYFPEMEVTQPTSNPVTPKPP
# Method: as §1
# [3] = molecular target: T2, human Fc fusion protein including the …
# Method: as §1
binder,measurement,setting,value
B1,EC50,[1],9.24 ng/mL
same,EC50,[2],5.03 ng/mL
same,EC50,[3],23.3 ng/mL
